Results from the DeepSol protein solubility set.

experiment: soluble on expression in E. coli; label from the status in PepcDB or PDB records

Row | Sequence | soluble on expression in E. coli
1 | SDDFDMLSAPQGSAGNGVGADEDPAAAFLAQQESEIAGIENDEGFSILDSGDVPSSLSQDQDGGAMNGDLHGESNGPSDVYAAISSVDRLQAEPESLRKWREEQRDRLEELDANSRKQEAEWKEKAKLELEEWHTRQNEQLEKTKVNNRVLDEDFYKQPFADLIGYVTHINHPCYRLDQAAEEAMVSELDENSPGTEWERVARLCDFNPKSSKQAKDVSRMRSVLISLKQAPLVR | soluble
2 | SVRDDLQVVLDTSPPDDTGFSTLERTMLRNILGLHDRRIADVMVHRADIVAIKQDIQLGELLSLFQDAAHSRLVVYNETLDDPVGIVHIRDLVAFMTAKAKVPPATVAKRKKALPAGLDLRAIDLKMPLTETGIIRKLLYVPPSMRAIDLLAQMQAARIHLALVVDEYGGTDGLVSIEDIVEQIVGEID | soluble
3 | MSHVSTLRRALLGALLLAPAAALANTPIPIDVWRTPTCGCCEDWLQHLRSNGFEVRAHMVEDTAPVRSQAGMPARYGSCHTARVQGYTVEGHVPAADIRRLLRDKPRAVGLTAPGMPIGSPGMDGPAYGGRRDAYDVLLVQPDGSARVFQAYR | not soluble
4 | SVTGIGSGFSELDEYTAGFQPSDMIIIAARPSAGKTAFALALARNAAVNFNTPVLFFSLEMAEIQLALRLMCAEAYVESQLVRRGQISPEMMNKIINSMDALADAKLFIDDTPGISIMELTAKTRRMKQEHGIGMVVVDYLQLVTPVRDGRSNREQEIAQISRSLKALAKELNIPVIALAQLNRSVEQRSGDRRPQLSDL | not soluble
5 | EIVMTQSPATLSVSPGERATLSCRASQSIGNNLHWYQQKPGQAPRLLIYYASQSISGIPARFSGSGSGTEFTLTISSLQSEDFAVYYCQQSNSWPYTFGGGTKVEIK | soluble
6 | MKQHQSADNSQGQLYIVPTPIGNLADITQRALEVLQAVDLIAAEDTRHTGLLLQHFGINARLFALHDHNEQQKAETLLAKLQEGQNIALVSDAGTPLINDPGYHLVRTCREAGIRVVPLPGPCAAITALSAAGLPSDRFCYEGFLPAKSKGRRDALKAIEAEPRTLIFYESTHRLLDSLEDIVAVLGESRYVVLARELTKTWETIHGAPVGELLAWVKEDENRRKGEMVLIVEGHKAQEEDLPADALRTLALLQAELPLKKAAALAAEIHGVKKNALYKYALEQQG | soluble
7 | MALINNRSKFSFFNKVRVLLKNILKPDESVEDVVDEHFRFTSSLSLDAPDGQIENLYQDEKDGKYHLTLFDNGLTGATGILPAAYTEWLIERKLRYNDDAPKAFMDMFDHRMYCLSYLAWQKMHLSGDENRRDNNVLNNVLLSLGGITPQTVSVTGLAYVAFYSQPVRSLAGLEQLLSLIHQIRVSINPFRGTFENTEPSEQGVLGNCLYTLGEGPVIGNVRWVVDSHFDVVLGPVDYRKAQELMPGKDSHYFIRQQIRSYIGDVLKFKIYVKIYPGNNDNQLNINNKLGFNLSLGSETENYKERCFCIF | not soluble
8 | SPGSAAKGSELSERIESFVETLKRGGGPRSSEEMARETLGLLRQIITDHRWSNAGELMELIRREGRRMTAAQPSETTVGNMVRRVLKIIREEYGRLHGRTDESDQQESLHKLLTSGGLNEDFSFHYAQLQSNIIEAINELLVELEGTMENIAAQALEHIHSNEVIMTIGFSRTVEAFLKEAARKRKFHVIVAECAPFCQGHEMAVNLSKAGIETTVMTDAAIFAVMSRVNKVIIGTKTILANGALRAVTGTHTLALAAKHHSTPLIVCAPMFKLSPQFPNEEDSFHKFVAPEEVLPFTEGDILEKVSVHCPVFDYVPPELITLFISNIGGNAPSYIYRLMSELYHPDDHVL | soluble
9 | MGHHHHHHSHMEDYSQEDWGNHSQDLHGYPTDQELDEIPVTKRTLKIKQESSEEAQKRDIMQNIVQILESVQLKWELFQSWTDFSRLHLSNKLAIFGIGYNTRWKEDIRYHYAEISSQVPLGKRLREYFNSEKPEGRIIMTRVQKMNWKNVYYKFLEITISEARCLELHMEIDWIPIAHSKPTGGNVVQYLLPGGIPKSPGLYAIGYEECIERPLSPHMEQSSLDPGKEGRVDLETLSAQASLQVEIEPTRIIYCYLGIAEVRTLQQCLFLHFQANTKTFSKDWVGINGFLSQNCIVDPGVSPKSIYIKFVEVERDFLSAGSLVECLEKAIGYPLKFNN | not soluble
10 | MREEFLEEIPLDAPPEEAKELRTEVMTLNVGPQHPSTHGVLRLMVTLSGEEVLEVVPHIGYLHTGFEKTMEHRTYLQNITYTPRMDYLHSFAHDLAYALAVEKLLGAVVPPRAETIRVILNELSRLASHLVFLGTGLLDLGALTPFFYAFRERETILDLFEWVTGQRFHHNYIRIGGVKEDLPEEFVPELKKLLEVLPHRIDEYEALFAESPIFYERARGVGVIPPEVAIDLGLTGGSLRASGVNYDVRKAYPYSGYETYTFDVPLGERGDVFDRMLVRIREMRESVKIIKQALERLEPGPVRDPNPQITPPPRHLLETSMEAVIYHFKHYTEGFHPPKGEVYVPTESARGELGYYIVSDGGSMPYRVKVRAPSFVNLQSLPYACKGEQVPDMVAIIASLDPVMGDVDR | soluble
11 | MIDVFDGQVTTRIALQLLALLAQRPGELRHAKWSEFDEADKVWAIPAGKMKMRRDHFVPLADQAITLLNELRPLTGESEYLFPSLRSWHRPMSENTMNAALRRMGYSGDEMTAHGFRATFSTLANESGLWNPDAIERALAHEERNELEHHHHHH | not soluble
12 | MGKRIAFWFEFASTYSYLSAMRIERAAADLGVTIAWEPFLLGPIFAAQGWTSSPFNLFPAKGRYMWRDMERLCARQGLPLTRPDPFPQNGLPAARLAMVAREMGHIAPFVRAVYAAQFGRGLVISDPQVLAECWAEAGLPPEAMEQAKSPEIKAALFAQGERAAALDLFGAPSFVVGEEVFWGDDRLDQALALAAQS | soluble
13 | MSLSWIYDAHIHLSDPEYKSDMNMILNYMDLLKIKACCVSMDLETSNETMSLYEKSKNILPFIGIHPEMAQKESKPVYDLIEKNNEIISGVGEIGLDRTYIDTEDEWNVQKEVFSKQLSLAEKFNKPVSIHSRKTLSDIFEILPSYKIPGILLHWFDGNKSQLRTAMDNEYFVSYGPLLIYAHDKQTLLTKTDPNRLLVETDGPVKFSRCFEYKTTEIMFVSSVIFCASKLLHMPYEKLLEQIEGNSKRFLGIEGHHHHHH | soluble
14 | MSLSQERFRVKYQIFEESKRAKEIAEAICVEQTIEFPIELTGNSIRENVVGKIEEIQNNHNSTVVTISYPVETVGNEPAQFFNVIMGNCSLFPNLKIIGLQLSPSIENIFPGPRYGISGLRKLLSIYNRPLLATAIKPMGLSTDQLAQMAYNLALGGVDIIKDDHGLADQPFSKFKDRVLKVTEAIHKANRETGFHTIYAPNITSNEQTMLKQAEFVKEAGSGALLVSPALSGFSSFITLRENTDLPILSHPAFLGGYLSIMDFDVLFGTIQRMIGADVVIFPNYGGRFTFSKEDCRKINHGLKKPFGSFKEIFPSPAGGMNIDSCGDIVSFYNKDVVLLIGGALHKAGADLTENVKAFKAQVEKIHVREGHHHHHH | soluble
15 | MKLYSILVFHKNVDTSDVKLFKSECDLSSFSFFQRGSVQEFMTFTAKLLVERSGLGARSSVKENEYLVHCYVRNDGLSAVCVTDAEYQQRVAMSFLGRVLDDFTTRVPATQWPGIRSDKDCSYTGLKDLLEKWQNPREADPMTRVQEEVEETKMVMHNTIQSVLDRGEKLDDLVKKSENLSDQSKMFYTSARKMNKCCNYV | not soluble
16 | MGSDKIHHHHHHMSIYHDVIKSEVFPALGCTEPIAVAYAASLAAERLGAEVETVTASVDPGVFKNGFAVTVPKTGGLKGNVIAAALGALIARPELKMEILSGADERLLAQAELLVSSGRATVALVKERTDLYIDVVVTGGGRTARAVLEGGHTNIVRLECDGRILLNADEPVSAVDSHAYRAVLRQMTFSEMIGLLDDLDQGDLVYLKRGVEMNLRIAEEGKQLTKVGHYVEELVRKGFLLADVVSSSKILTASASDARMAGLPYPVMSSGGSGNQGIVAILVPYNVGMFFHVPEETILRSIALSHLVNAYIKCHTGDLAPICGCAIAAGVGAAVAIVYQQAGPDMHKIDLAVNTIISDIGGMLCDGAKGGCALKVVSSTDAAIRAAYMALNGHGISEEEGFVGKSAEETIHNLSRIADKGMALVDDTMLCIMLQKRSTEP | not soluble
